In patent publication US10087225B2, “Formulation of MK2 inhibitor peptides” (MOERAE MATRIX, INC., priority 2015, dated 2018):

Experiments:
Experiment in all cases: Kinase Profiling Assay
Type in all cases: biochemical
Settings in all cases: for % activity: 100 μM
PKG1α(h) = molecular target: T1, PKG1α(h) (Homo sapiens, UniProt Q13976)
T1 sequence (Q13976 1-671): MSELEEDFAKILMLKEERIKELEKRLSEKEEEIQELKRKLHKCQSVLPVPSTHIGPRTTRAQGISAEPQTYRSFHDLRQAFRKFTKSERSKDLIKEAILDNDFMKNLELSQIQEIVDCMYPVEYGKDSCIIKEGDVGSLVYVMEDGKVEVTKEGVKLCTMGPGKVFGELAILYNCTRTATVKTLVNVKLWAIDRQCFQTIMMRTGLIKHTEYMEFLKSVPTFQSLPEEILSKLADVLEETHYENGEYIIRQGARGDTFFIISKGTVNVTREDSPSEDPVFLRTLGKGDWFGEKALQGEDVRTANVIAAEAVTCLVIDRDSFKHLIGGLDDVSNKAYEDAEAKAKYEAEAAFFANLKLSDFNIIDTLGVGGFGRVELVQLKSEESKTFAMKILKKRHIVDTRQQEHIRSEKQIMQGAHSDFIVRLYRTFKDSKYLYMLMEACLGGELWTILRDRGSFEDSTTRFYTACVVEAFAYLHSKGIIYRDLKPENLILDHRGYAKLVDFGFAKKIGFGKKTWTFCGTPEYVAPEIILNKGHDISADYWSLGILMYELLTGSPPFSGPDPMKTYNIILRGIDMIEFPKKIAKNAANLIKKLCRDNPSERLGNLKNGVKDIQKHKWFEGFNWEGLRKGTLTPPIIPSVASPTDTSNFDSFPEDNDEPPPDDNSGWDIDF

Mer(h) = molecular target: T2, Mer(h) (Homo sapiens, UniProt Q12866)
T2 sequence (Q12866 21-999): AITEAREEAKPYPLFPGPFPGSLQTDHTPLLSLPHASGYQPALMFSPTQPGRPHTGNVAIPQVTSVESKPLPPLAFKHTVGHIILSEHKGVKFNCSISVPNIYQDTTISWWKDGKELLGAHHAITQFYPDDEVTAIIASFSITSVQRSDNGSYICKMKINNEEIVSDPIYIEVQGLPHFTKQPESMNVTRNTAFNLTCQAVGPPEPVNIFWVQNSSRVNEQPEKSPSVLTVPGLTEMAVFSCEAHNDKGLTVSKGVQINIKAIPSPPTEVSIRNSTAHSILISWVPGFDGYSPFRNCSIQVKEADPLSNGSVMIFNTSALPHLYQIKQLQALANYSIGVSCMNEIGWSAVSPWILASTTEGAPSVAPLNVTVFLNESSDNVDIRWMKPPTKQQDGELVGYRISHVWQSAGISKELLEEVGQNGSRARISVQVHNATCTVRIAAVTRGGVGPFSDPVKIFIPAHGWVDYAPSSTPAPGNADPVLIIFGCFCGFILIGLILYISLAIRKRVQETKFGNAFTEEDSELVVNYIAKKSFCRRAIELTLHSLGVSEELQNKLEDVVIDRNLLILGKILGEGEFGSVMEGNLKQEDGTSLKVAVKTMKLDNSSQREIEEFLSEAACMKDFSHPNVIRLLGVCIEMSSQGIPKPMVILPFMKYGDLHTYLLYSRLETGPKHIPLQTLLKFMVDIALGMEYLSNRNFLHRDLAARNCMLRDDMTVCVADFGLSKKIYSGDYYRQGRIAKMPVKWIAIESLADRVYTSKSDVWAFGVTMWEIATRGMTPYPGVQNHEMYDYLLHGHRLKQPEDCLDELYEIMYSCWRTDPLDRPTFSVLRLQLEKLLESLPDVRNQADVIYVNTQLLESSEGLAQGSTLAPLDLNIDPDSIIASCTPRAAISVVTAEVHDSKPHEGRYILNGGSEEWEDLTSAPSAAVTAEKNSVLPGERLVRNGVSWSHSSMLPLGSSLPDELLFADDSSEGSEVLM

Haspin(h) = molecular target: T3, Haspin(h) (Homo sapiens, UniProt Q8TF76)
T3 sequence (Q8TF76 1-798): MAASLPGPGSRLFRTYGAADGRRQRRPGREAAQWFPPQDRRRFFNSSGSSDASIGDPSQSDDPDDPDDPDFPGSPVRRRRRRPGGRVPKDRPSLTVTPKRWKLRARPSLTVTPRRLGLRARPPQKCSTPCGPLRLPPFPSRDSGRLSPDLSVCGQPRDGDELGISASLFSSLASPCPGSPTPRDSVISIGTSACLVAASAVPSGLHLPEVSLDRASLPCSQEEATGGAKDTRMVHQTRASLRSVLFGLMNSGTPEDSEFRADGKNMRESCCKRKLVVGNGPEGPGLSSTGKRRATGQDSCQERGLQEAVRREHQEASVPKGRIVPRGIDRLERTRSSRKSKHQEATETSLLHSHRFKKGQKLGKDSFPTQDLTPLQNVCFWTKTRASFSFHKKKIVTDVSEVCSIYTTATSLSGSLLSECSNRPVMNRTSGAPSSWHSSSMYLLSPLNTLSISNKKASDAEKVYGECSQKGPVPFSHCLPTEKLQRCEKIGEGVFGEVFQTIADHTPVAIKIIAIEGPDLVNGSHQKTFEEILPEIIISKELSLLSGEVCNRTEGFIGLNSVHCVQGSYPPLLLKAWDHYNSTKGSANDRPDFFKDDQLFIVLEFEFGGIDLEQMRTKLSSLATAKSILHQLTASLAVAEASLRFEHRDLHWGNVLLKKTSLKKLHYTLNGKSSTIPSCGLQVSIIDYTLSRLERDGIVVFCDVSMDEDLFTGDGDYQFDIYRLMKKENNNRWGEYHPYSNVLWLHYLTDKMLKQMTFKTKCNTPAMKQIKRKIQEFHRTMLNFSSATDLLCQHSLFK

ULK3(h) = molecular target: T4, ULK3(h) (Homo sapiens, UniProt Q6PHR2)
T4 sequence (Q6PHR2 1-472): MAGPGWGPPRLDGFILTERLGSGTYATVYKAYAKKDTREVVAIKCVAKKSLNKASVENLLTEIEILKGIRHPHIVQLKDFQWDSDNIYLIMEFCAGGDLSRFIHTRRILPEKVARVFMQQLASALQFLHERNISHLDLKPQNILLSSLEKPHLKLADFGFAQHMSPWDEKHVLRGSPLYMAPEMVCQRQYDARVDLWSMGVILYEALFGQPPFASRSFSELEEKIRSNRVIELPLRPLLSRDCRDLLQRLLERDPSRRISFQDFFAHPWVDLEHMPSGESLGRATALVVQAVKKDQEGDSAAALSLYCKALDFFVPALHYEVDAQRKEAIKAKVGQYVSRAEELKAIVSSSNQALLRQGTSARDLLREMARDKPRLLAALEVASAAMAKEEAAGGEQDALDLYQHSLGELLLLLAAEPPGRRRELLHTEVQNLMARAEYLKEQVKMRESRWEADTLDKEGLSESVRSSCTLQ

Substance	activity at 100 µM (PKG1α(h)) [%]	activity at 100 µM (Mer(h)) [%]	activity at 100 µM (Haspin(h)) [%]	activity at 100 µM (ULK3(h)) [%]	% activity (PKG1α(h)) [%]	% activity (Mer(h)) [%]	% activity (Haspin(h)) [%]	% activity (ULK3(h)) [%]
H-YARAAARQARAKALARQLGVAA-OH [MMI-0100]	82	47	127	142				
HRRIKAWLKKIKALARQLGVAA (Mammalian) [MMI-0500]					25	17	25	177
YARAAARQARAKALNRQLGVA (Mammalian) [MMI-0200]					70	90	71	164
